The data set can be described thus: soluble on expression in E. coli; label from the status in PepcDB or PDB records.
On to “MSLGKFTAVILDFETTGLSPGYGDRAIEIGAVLVRNNRIVDRFQSLMNPGKRVSGFIEEYTGITNEMLAKAPPAEQVMERFASFIAGHNLVAHNASFDRRFLDAELSRIGRRRTGDFACSMLAARRIYTNAPNHRLETLVSHLSLQTDGVFHRALADAEMTAQLWTAMIGELKETYRLRQVTFELMHSLGGVAKKAVPAYLERVAAGREGHHHHHH”, for which the “soluble on expression in E. coli” value was “not soluble”. Take “MGSDKIHHHHHHMTTWVLLRGLMRDQRHWNGFDQRLRQKGLRVLTPDLPGNGTLSTEASPLKIADYAHAVWLQLDEQVQEGETIYLLGLSMGGMLALEMARQRPWLIRHVFVLNSSAANLSAWYQRFNPLNALKAFFLRARGKALHPIESTIVRLTSFRHRLDCGLIAEWSEFRRQSSPTIRNAWRQLWAAFQYQCPLTVEVPISVLCGDRDALVSMASSKALALHFHTDLIVLAYCGHDAAIDAPAKLAHYLLAIVAPTKLQAEVQEDDEPAHAQYAHTQYSCNDLLEEEMAFNEAIFSVWDEKALSTLHSKSSAMNSAKTVNS”: the “soluble on expression in E. coli” value was “not soluble”. Under “AQQAEWRSWEVNKRLEYSLVKGITEFIEQDTEEARQQATRPCEVIEGPLMDGMNVVGDLFGEGKMFLPQVVKSARVMKQAVAYLEPFIEASKEQCKTNGKMVIATVKGDVHDIGKNIVGVVLQCNNYEIVDLGVMVPAEKILRTAKEVNADLIGLSGLITPSLDEMVNVAKEMERQGFTIPLLIGGATTSKAHTAVKIEQNYSGPTVYVQNASRTVGVVAALLSDTQRDDFVARTRKEYETVRIQHGRKKPRTPPVTLEAARDNDFAFDWQAYTPPVAHRLGVQEVEASIETLRNYIDWTPFFMTWSLAGKYPRILEDEVVGVEAQRLFKDANDMLDKLSAEKTLNPRGVVGLFPANRVGDDIEIYRDETRTHVINVSHHLRQQTEKTGFANYCLADFVAPKLSGKADYIGAFAVTGGLEEDALADAFEAQHDDYNKIMVKALADRLAEAFAEYLHERVRKVYWGYAPNENLSNEELIRENYQGIRPAPGYPACPEHTEKATIWELLEVEKHTGMKLTESFAMWPGASVSGWYFSHPDSKYYAVAQIQRDQVEDYARRKGMSVTEVERWLAPNLGYDAD” stands “soluble”; under “MGSDKIHHHHHHMVDEILKLKKEKGYIILAHNYQIPELQDIADFVGDSLQLARKAMELSEKKILFLGVDFMAELVKILNPDKKVIVPDRSATCPMANRLTPEIIREYREKFPDAPVVLYVNSTSECKTLADVICTSANAVEVVKKLDSSVVIFGPDRNLGEYVAEKTGKKVITIPENGHCPVHQFNAESIDAVRKKYPDAKVIVHPECPKPVRDKADYVGSTGQMEKIPEKDPSRIFVIGTEIGMIHKLKKKFPDREFVPLEMAVCVNMKKNTLENTLHALQTESFEVILPKEVIEKAKKPILRMFELMG”, “not soluble”; under “MGSDKIHHHHHHMVRFISNTLSQTLNEPFQQSHKSCKHLYILEILSQVVIVSDQKQVPLQPYDIILAQSFNHLQIDSLDRNPILLRLYSLDFDLPSPLNQYTVGDNPLIHDLMNDHTSEDAYILFTNLSDLICHAYLDALEKLENLRDNNDEQVYIDFQRQKLAGLLFTELLRQHDAKVSKFASRFPSVNVKYASKDSQSGAIMKYVSDNVHHISLKEAAAHFFYQANYFSRLCHELFGISFNQLKTTIRLEIAKEQLRLTTKSVEEISQELGYKAVSNFHRNFKSQTGMTPNDYRQDKQ”, “not soluble”.

With “MVIRRTYMARDNTYYLDEALYISAQAPTGIELSFIGGGGPGSGGWGLSDGYPRGTSPTKNDIARVISTRRVLTEEFQIIEKDYSDKYAHETNQLPETINALKAQIKAEASSTNGAASPFVTEQQILSSRISQIRDGYLQILPDANNYFGVPAFYKRGDSMMSRFLDPGFFAATTGQELGVEWATRLQKSWEGTYRLHLEAQKHQALADELRALASQVDQEELSQQPLDLLQVIARRTAQIHTERQIHFDCLPNVLQHELGQTVIDDTLTLVQTFSTYLATAAALVQAKQSQIPPYQDQNPRINSPLSKPQLEGLLHLVDEQRLRRAGPRWQEYHLALALTESIRFLGVYAGATQNLMQRAAEVENLQAQLAAQEEAARQQAEAERLAAEAERQRQEALRRSVSYINEARLAVSTPAVIPIGATTFAVAEAAYSALAESIAAALTRLVATTVPSVAVGTLAMAWPSTLGNSERQYLISTPLDSLSPAGGPDLAALAASSTSIDLPYLLAGVENENELDLYVVPSGKPVAVRAATFDSERQVYSLALDNPQRILTWTPASAPGGDEGNSTSLPLVPPGTVVYTGSSLNPVVTEQEGYPALDLLDQERLIITFPMDSGLPPILVVFKSPRYEAGTSTGHGAQVSDTWRKEAASLEGAPIPAQIAELLKSREFRNFDAFRRQFWKAVANDPELSKQFDEMSLSRMRKNGYSPIVDFPDSHLSQKTFILHHVIPISEGGGVYDMDNIRIVTPLSHNSIHYGTKPLEHHHHHH”, the “soluble on expression in E. coli” value was “not soluble”.

In the case of “SREWRTKIQAQIDRFPIGDREGEWQTMIQKMVSSYLVHHGYCATAEAFARSTDQTVLEELASIKNRQRIQKLVLAGRMGEAIETTQQLYPSLLERNPNLLFTLKVRQFIEMVNGTDSEVRCLGGRSPKSQDSYPVSPRPFSSPSMSPSHGMNIHNLASGKGSTAHFSGFESCSNGVISNKAHQSYCHSNKHQSSNLNVPELNSINMSRSQQVNNFTSNDVDMETDHYSNGVGETSSNGFLNGSSKHDHEMEDCDTEMEVDSSQLRRQLCGGSQAAIERMIHFGRELQAMSEQLRRDCGKNTANKKMLKDAFSLLAYSDPWNSPVGNQLDPIQREPVCSALNSAILETHNLPKQPPLALAMGQATQCLGLMARSGIGSCAFATVEDYLH”, the “soluble on expression in E. coli” value is “soluble”. With “PVSQPDAPGHQRKVVSWIDVYTRATCQPREVVVPLTVELMGTVAKQLVPSCVTVQRCGGCCPDDGLECVPTGQHQVRMQILMIRYPSSQLGEMSLEEHSQCECRPKKKDSAVKPDSPRPLCPRCTQHHQRPDPRTCRCRCRRRSFLRCQGRGLELNPDTCRCRKLRR”, the “soluble on expression in E. coli” value is “soluble”. With “MNYELIVVGGGPAGLAAAYEAYNNGIKNILILERDKELGGILNQCIHNGFGLHTFKEELTGPEYADRFIEMVKDTNVEVKLNTMVLEITKDKKVYAINSKEGYMELEAKAIILSMGCRERTRGAINIPGDRPAGVFTAGAAQRYINVEGYMPGKEVVILGSGDIGLIMARRMTLEGAKVKAVVELCPYSNGLNRNIVQCLNDYNIPLYLSHTVTDIIGKERLEKVIIAKVDENRRPIKGTEIEFDADTLLLSVGLIPENELSSNAGIELDRRTNGLRVTESMETSIDGIFACGNVVHVHDLVDFVTEESKRTGASAAKYIKGELKKDKYVNIVNGTNVNYTVPQKLNVDDVEDRLTIFMRVNNIYHNKVLVVRSKEEVIAKFKRAHLAPSEMEKVVLGKAFLDKIKSDITISLEDGE” the entry was “not soluble”; with “MAVPQLYYFTIRGFGEYIRLLFLDNGIKFEDIRFDYEGNEWQEFKKGMLLGQLPCLKVDGQEIVQTGAIMRHLGRVHGLNGSNEQEATFLDMFFEGVRDVRMKYVRYIYYDEGTREDCVNKTIPEALVKLEELFKAHSGDFIIGNKISYADYILFEELDVYHVLDANILDKFPTLKSFWERMWKRPNLNAYLEKRKADKVWINAIEKGMN”, “soluble”. With “MSLNPEEEVITLMKKAGIDLVATLPCDRIKNLLPLVSKNFPEIKMTREENGVGICAGFYLAGGKPLMLIQSTGLGNMINALESLNVTCKIPLPVLTSWRGVYKEAIEAQVPLGVHLPAILEGAGLAYTIIDEVEKLHQIENVISDAFENSRPHIALISPKVWEASECCAWQGAGMPEKPEVMERTCSIFLKKEVLKPVMLRNDAICAIASELDDEVTVTNLGVPCKELYACKDRDLNFYMFGSMGLVSSIGMGIALRSEKTVVAFDGDGSLLMNPNALLEIAKESPKNLIIIALDNGAYGSTGSQETCALRYIDLEIFANACGITNTAKVNAREELIKIFKKFRDMKELALIHVILKPGNTNAPNIPLSPEGAAKRFKEALEAKKNEGHHHHHH” the entry was “soluble”; with “AEIYNKDGNKLDLYGKIDGLHYFSDDKDVDGDQTYMRLGVKGETQINDQLTGYGQWEYNVQANNTESSSDQAWTRLAFAGLKFGDAGSFDYGRNYGVVYDVTSWTDVLPEFGGDTYGSDNFLQSRANGVATYRNSDFFGLVDGLNFALQYQGKNGSVSGEGATNNGRGALKQNGDGFGTSVTYDIFDGISAGFAYANSKRTDDQNQLLLGEGDHAETYTGGLKYDANNIYLATQYTQTYNATRAGSLGFANKAQNFEVAAQYQFDFGLRPSVAYLQSKGKDLNGYGDQDILKYVDVGATYYFNKNMSTYVDYKINLLDDNSFTRSAGISTDDVVALGLVYQF”, “soluble”.

Values taken from the DeepSol protein solubility set.
